Reference: paper PMC11771877 (PLOS Pathogens, 2025)

Experiments:
Test in all cases: pull-down
Conditions in all cases: both partners purified
[1] = molecular target: original purified His-tagged N protein (SARS-CoV-2, UniProt P0DTC9 1-419)
[2] = molecular target: R203M and D377Y mutant N protein, His-tagged (SARS-CoV-2, UniProt P0DTC9 1-419, R203M | D377Y)
[3] = molecular target: Omicron mutant N protein, His-tagged (SARS-CoV-2, UniProt P0DTC9 1-419, P13L | RG203/204KR)

Measured: binding result

B1: purified RIG-I-GST protein (natural protein)
chain: MTTEQRRSLQAFQDYIRKTLDPTYILSYMAPWFREEEVQYIQAEKNNKGPMEAATLFLKFLLELQEEGWFRGFLDALDHAGYSGLYEAIESWDFKKIEKLEEYRLLLKRLQPEFKTRIIPTDIISDLSECLINQECEEILQICSTKGMMAGAEKLVECLLRSDKENWPKTLKLALEKERNKFSELWIVEKGIKDVETEDLEDKMETSDIQIFYQEDPECQNLSENSCPPSEVSDTNLYSPFKPRNYQLELALPAMKGKNTIICAPTGCGKTFVSLLICEHHLKKFPQGQKGKVVFFANQIPVYEQQKSVFSKYFERHGYRVTGISGATAENVPVEQIVENNDIIILTPQILVNNLKKGTIPSLSIFTLMIFDECHNTSKQHPYNMIMFNYLDQKLGGSSGPLPQVIGLTASVGVGDAKNTDEALDYICKLCASLDASVIATVKHNLEELEQVVYKPQKFFRKVESRISDKFKYIIAQLMRDTESLAKRICKDLENLSQIQNREFGTQKYEQWIVTVQKACMVFQMPDKDEESRICKALFLYTSHLRKYNDALIISEHARMKDALDYLKDFFSNVRAAGFDEIEQDLTQRFEEKLQELESVSRDPSNENPKLEDLCFILQEEYHLNPETITILFVKTRALVDALKNWIEGNPKLSFLKPGILTGRGKTNQNTGMTLPAQKCILDAFKASGDHNILIATSVADEGIDIAQCNLVILYEYVGNVIKMIQTRGRGRARGSKCFLLTSNAGVIEKEQINMYKEKMMNDSILRLQTWDEAVFREKILHIQTHEKFIRDSQEKPKPVPDKENKKLLCRKCKALACYTADVRVIEECHYTVLGDAFKECFVSRPHPKPKQFSSFEKRAKIFCARQNCSHDWGIHVKYKTFEIPVIKIESFVVEDIATGVQTLYSKWKDFHFEKIPFDPAEMSK
notes: also called GST-RIG-I; RIG-I protein (labeled with GST tag); source: E. coli BL21, purified (GSH Magnetic Agarose Beads)
binds: all assays above
